Drawing on US20050282743A1, “Molecular interactions in cells” (Arbor Vita Corporation, priority 2001, published 2005), this text covers Kd and Classification for three compounds.

Format in all cases: binding
Assay [1] has as its target T1, PDZ-domain polypeptide (GST/PDZ fusion protein) (Homo sapiens, UniProt Q6P0Q8).
T1 construct: made in house; host or cells: E. coli (DH5alpha, BL21 or JM109)
Kind of assay: Apparent affinity (Kd) by titration of PL peptide in the G assay. The conditions noted are these: PDZ KIAA0807(S), PDZ Domain 1; titration of the PL peptide; read-out: Peptide Optimal Conc (Kd, dissociation constant). Here is the method: The third column labeled “Peptide Optimal Concentration” in the tables is a number reflective of the binding interaction between the PL protein and PDZ protein. […] The column labeled “Protein Optimal Concentration” refers to the protein concentration used to assay PL interaction (in ug/ml); a ‘0’ is indicative of 5 ug/ml protein concentration; any other value represents the concentration (in ug/ml) used to determine the dissociation constant for a given interaction.
The “A” and “G” assays described supra can be used to determine the “apparent affinity” of binding of a PDZ ligand peptide to a PDZ-domain polypeptide. Apparent affinity is determined based on the concentration of one molecule required to saturate the binding of a second molecule (e.g., the binding of a ligand to a receptor). Two particularly useful approaches for quantitation of apparent affinity of PDZ-ligand binding are provided infra.
In cases where satisfying the above criteria proves difficult, an alternative approach (infra) can be used.
(1) A fixed concentration of a PDZ-domain polypeptide and increasing concentrations of a labeled PL peptide (labeled with, for example, biotin or fluorescein, see TABLE 9 for representative peptide amino acid sequences) are mixed together in solution and allowed to react. In certain assays, peptide concentrations are 0.1 uM, 1 uM, 10 uM, 100 uM, 1 mM. In other assays, appropriate reaction times can range from 10 minutes to 2 days at temperatures ranging from 4° C. to 37° C. In some instances, the identical reaction can also be carried out using a non-PDZ domain-containing protein as a control (e.g., if the PDZ-domain polypeptide is fusion protein, the fusion partner can be used).
(2) PDZ-ligand complexes can be separated from unbound labeled peptide using a variety of methods known in the art.
(3) The PDZ-ligand complex is detected based on presence of the label on the peptide ligand using a variety of methods and detectors known to one of skill in the art. For example, if the label is fluorescein and the separation is achieved using HPSEC, an in-line fluorescence detector can be used. The binding can also be detected as described supra for the G assay.

The target in assay [2] is T2, PDZ protein (GST-PDZ fusion) (Homo sapiens, UniProt Q9P202).
T2 construct: made in house; host or cells: E. coli (DH5alpha, BL21 or JM109)
T2 sequence (Q9P202 1-907): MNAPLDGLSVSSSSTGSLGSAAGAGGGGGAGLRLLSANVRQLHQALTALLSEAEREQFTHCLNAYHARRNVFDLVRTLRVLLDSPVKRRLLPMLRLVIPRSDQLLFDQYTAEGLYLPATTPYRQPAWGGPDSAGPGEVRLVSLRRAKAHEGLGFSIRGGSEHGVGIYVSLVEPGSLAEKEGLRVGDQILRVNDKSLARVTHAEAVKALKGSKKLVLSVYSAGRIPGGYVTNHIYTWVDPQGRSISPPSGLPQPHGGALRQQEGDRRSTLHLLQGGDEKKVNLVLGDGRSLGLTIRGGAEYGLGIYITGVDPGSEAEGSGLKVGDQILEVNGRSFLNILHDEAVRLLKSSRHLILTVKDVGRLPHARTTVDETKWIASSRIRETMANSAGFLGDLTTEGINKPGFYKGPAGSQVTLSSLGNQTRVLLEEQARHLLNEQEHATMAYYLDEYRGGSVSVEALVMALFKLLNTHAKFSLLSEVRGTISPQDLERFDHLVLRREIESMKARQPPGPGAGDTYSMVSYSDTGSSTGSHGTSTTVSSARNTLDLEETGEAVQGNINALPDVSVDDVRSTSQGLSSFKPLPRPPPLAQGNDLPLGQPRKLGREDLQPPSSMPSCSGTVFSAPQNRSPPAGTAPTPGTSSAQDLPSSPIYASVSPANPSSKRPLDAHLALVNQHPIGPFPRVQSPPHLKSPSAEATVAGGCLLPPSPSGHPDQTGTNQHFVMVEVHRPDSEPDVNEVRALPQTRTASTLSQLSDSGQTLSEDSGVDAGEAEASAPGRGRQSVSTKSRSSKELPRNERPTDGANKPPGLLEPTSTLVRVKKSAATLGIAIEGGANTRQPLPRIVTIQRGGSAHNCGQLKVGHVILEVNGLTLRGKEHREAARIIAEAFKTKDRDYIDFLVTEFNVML
Kind of assay: G' assay (10 uM PL peptide), results of TABLE 7 and TABLE 12. The conditions noted are these: PDZ KIAA1526, PDZ Domain 1. The procedure, abridged: (§1)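 Biotinylated PL peptides at 10 uM (vs 20 uM in G^0 assay) bound to GST-PDZ fusions; PDZ protein at 5 ug/ml unless another concentration listed. Bound peptide read as A450 nm, classified 0–5 (0 = A450 0; 5 = A450 >4 repeated).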

The target of assay [3] is T3, PDZ protein (GST-PDZ fusion) (Homo sapiens, UniProt Q6P0Q8).
T3 construct: made in house; host or cells: E. coli (DH5alpha, BL21 or JM109)
T3 sequence (Q6P0Q8 whole entry, the tested form may be a part): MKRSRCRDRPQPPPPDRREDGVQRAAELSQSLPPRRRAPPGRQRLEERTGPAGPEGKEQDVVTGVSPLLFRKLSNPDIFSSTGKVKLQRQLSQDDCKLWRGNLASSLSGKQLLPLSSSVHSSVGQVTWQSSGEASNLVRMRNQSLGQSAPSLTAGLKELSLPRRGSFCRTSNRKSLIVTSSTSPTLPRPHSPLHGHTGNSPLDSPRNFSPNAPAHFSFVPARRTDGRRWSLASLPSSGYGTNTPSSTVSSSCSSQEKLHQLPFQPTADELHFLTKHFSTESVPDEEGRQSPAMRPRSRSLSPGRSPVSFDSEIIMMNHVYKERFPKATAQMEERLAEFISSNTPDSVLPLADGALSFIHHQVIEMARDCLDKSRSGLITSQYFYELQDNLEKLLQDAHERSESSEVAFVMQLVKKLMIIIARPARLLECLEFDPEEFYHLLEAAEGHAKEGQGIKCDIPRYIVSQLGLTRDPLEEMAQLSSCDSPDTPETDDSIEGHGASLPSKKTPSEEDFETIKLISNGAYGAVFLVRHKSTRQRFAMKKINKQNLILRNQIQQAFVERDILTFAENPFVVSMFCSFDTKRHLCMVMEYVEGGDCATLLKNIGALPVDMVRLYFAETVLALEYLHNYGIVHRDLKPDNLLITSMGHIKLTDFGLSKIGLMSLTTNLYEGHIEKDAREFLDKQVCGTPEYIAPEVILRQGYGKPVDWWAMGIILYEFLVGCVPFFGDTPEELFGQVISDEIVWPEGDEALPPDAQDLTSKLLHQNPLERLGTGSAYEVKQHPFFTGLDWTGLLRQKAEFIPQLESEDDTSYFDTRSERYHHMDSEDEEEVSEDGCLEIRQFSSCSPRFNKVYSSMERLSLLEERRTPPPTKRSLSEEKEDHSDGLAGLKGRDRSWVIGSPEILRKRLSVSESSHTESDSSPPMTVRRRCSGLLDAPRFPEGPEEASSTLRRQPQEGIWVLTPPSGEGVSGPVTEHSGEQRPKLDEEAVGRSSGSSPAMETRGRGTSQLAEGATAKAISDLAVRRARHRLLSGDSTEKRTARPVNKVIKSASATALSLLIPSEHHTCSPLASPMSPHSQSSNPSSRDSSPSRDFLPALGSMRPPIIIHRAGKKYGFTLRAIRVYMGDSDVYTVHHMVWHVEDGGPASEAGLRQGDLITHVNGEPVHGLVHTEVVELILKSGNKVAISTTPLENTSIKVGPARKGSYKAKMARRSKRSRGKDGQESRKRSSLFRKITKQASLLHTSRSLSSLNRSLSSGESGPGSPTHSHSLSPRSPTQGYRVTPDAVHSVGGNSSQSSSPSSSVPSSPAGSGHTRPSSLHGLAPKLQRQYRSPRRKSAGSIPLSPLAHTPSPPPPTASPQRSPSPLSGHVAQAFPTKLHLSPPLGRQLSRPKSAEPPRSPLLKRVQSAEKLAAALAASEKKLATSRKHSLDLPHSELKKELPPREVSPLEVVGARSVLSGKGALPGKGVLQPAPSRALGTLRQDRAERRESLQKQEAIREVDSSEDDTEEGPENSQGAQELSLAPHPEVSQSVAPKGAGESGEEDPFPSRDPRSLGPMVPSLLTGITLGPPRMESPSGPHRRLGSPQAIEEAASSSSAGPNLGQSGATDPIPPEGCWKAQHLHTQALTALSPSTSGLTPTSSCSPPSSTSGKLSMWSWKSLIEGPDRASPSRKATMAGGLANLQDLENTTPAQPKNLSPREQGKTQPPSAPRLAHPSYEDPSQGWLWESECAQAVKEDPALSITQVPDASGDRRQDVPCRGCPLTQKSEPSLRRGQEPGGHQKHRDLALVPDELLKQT
Described as above. A digest of the protocol: as §1

In assay [4] the target is T4, PDZ protein (GST-PDZ fusion) (Homo sapiens, UniProt P57105).
T4 construct: made in house; host or cells: E. coli (DH5alpha, BL21 or JM109)
T4 sequence (P57105 1-145): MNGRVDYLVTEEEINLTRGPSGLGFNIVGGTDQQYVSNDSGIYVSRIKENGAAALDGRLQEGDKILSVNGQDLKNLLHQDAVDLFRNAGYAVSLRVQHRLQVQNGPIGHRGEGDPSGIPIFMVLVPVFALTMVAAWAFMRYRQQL
The assay is described as above. The conditions noted are these: PDZ Outer Membrane, PDZ Domain 1. A digest of the protocol: as §1

In assay [5] the target is T5, PDZ protein (GST-PDZ fusion) (Homo sapiens, UniProt Q02410).
T5 construct: made in house; host or cells: E. coli (DH5alpha, BL21 or JM109)
T5 sequence (Q02410 1-837): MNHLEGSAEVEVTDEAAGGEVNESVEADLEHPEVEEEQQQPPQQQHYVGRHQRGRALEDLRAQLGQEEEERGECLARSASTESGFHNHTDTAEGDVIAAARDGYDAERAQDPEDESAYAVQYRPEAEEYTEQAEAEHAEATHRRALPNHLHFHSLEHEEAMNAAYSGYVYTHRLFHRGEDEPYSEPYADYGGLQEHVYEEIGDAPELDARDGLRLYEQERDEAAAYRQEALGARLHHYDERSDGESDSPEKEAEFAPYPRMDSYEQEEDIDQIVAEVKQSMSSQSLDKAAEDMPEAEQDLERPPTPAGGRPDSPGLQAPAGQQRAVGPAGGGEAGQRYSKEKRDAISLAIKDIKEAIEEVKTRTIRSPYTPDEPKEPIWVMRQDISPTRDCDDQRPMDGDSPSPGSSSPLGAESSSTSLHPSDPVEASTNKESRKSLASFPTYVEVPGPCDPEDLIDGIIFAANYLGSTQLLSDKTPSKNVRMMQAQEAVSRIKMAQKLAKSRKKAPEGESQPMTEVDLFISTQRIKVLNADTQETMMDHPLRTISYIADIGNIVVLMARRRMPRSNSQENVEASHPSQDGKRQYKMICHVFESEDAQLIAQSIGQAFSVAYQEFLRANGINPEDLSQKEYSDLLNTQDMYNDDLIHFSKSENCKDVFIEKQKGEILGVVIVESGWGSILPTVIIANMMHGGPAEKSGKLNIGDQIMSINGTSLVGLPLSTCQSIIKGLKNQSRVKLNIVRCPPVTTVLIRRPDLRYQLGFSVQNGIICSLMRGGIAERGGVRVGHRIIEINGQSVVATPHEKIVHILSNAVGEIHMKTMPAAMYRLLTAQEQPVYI
The description is as above. As to conditions: PDZ Mint 1, PDZ Domain 1, 2. The procedure, abridged:
as §1

The target in assay [6] is T6, PDZ protein (GST-PDZ fusion) (Homo sapiens, UniProt P55196).
T6 construct: made in house; host or cells: E. coli (DH5alpha, BL21 or JM109)
T6 sequence (P55196 whole entry, the tested form may be a part): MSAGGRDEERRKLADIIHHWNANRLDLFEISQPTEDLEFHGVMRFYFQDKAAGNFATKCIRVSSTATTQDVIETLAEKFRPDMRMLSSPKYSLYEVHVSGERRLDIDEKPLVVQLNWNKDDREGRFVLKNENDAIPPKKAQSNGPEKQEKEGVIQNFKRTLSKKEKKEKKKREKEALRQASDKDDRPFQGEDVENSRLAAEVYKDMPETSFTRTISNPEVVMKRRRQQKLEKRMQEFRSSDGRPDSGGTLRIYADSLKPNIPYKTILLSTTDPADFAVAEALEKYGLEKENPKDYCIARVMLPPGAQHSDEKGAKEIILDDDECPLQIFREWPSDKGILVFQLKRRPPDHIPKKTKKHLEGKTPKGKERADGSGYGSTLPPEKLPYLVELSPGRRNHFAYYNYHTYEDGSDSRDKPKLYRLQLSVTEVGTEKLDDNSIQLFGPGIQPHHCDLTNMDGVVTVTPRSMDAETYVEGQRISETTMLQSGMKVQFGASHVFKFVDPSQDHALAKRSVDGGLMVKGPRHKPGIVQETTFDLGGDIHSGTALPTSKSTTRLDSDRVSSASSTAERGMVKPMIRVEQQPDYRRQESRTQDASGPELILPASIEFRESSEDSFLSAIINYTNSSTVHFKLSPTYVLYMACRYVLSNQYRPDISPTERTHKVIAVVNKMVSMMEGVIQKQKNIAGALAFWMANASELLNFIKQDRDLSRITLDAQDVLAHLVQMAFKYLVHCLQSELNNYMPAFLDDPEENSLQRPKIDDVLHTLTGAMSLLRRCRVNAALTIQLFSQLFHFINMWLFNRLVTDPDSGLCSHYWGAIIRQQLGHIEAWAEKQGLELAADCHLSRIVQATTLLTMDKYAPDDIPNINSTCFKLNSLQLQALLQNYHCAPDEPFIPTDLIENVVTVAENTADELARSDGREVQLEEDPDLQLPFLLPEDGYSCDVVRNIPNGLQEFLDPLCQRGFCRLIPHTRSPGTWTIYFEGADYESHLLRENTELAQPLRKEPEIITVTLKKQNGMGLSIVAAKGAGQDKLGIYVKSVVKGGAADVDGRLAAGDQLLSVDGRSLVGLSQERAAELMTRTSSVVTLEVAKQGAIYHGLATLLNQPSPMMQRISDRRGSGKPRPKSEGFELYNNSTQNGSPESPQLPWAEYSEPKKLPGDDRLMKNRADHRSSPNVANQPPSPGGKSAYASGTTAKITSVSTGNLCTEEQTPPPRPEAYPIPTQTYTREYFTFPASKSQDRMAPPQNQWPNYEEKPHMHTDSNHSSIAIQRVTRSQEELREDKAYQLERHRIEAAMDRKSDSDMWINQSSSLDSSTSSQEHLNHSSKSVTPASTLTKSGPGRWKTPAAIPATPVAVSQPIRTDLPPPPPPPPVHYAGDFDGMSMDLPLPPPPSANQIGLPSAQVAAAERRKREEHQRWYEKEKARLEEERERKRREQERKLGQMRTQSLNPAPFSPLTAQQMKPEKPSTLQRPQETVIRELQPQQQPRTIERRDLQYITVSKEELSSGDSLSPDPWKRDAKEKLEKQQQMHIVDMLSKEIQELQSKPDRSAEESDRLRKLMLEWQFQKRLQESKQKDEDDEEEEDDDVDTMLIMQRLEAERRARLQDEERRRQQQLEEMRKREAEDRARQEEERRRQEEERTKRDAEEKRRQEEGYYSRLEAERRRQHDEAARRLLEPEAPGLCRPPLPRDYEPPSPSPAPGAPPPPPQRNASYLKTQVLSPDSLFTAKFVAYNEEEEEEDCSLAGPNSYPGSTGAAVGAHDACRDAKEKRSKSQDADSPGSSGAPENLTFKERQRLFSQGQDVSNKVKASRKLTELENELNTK
The description is as above. As to conditions: PDZ AF6, PDZ Domain 1. The procedure, abridged:
as §1

Assay [7] has as its target T7, PDZ protein (GST-PDZ fusion) (Homo sapiens, UniProt Q5TCQ9).
T7 construct: made in house; host or cells: E. coli (DH5alpha, BL21 or JM109)
T7 sequence (Q5TCQ9 1-1481): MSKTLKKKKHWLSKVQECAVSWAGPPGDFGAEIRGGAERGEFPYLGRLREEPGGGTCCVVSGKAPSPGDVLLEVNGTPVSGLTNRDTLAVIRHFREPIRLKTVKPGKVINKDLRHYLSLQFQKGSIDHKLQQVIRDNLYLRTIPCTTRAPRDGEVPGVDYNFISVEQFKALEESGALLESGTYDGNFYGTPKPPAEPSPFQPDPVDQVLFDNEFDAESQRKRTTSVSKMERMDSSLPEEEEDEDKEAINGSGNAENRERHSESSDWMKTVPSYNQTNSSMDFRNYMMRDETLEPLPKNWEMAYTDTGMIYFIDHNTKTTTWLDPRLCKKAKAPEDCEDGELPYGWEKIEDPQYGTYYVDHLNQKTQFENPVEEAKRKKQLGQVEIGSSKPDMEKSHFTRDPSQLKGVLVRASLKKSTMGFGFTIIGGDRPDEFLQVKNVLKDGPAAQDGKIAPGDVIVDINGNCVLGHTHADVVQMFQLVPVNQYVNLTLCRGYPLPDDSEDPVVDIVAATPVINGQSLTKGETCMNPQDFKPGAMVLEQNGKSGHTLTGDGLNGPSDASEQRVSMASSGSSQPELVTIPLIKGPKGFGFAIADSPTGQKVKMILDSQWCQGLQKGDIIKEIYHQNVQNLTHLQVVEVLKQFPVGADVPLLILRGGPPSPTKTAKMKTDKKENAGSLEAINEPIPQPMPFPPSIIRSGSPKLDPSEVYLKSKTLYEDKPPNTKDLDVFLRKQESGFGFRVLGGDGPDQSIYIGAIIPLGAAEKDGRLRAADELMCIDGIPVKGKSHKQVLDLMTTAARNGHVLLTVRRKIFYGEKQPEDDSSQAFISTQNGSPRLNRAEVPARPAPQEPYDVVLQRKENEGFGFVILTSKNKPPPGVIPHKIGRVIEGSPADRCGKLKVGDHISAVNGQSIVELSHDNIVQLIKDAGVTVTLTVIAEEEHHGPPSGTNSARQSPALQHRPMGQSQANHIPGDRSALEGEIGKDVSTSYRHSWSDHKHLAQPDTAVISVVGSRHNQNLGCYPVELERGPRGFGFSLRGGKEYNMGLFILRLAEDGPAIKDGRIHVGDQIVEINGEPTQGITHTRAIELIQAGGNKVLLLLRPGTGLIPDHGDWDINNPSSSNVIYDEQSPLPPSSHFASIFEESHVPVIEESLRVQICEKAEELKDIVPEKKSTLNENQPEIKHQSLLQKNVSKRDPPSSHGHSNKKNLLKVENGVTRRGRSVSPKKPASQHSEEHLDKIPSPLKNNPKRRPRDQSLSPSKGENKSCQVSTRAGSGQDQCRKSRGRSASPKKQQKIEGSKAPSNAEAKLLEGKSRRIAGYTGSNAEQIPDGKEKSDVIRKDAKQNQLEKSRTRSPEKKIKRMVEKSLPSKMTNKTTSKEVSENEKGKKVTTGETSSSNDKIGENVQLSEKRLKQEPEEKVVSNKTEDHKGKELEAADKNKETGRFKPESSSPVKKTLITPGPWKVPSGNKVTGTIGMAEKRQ
The description is as above. The conditions noted are these: PDZ KIAA1634, PDZ Domain 1. A digest of the protocol:
as §1

For assay [8], the target named is T8, PDZ protein (GST-PDZ fusion) (Homo sapiens, UniProt Q12923).
T8 construct: made in house; host or cells: E. coli (DH5alpha, BL21 or JM109)
Described as above. The conditions noted are these: PDZ PTPL-1, PDZ Domain 4. The procedure, abridged: as §1

In assay [9] the target is T9, PDZ protein (GST-PDZ fusion) (Homo sapiens, UniProt Q8NI35).
T9 construct: made in house; host or cells: E. coli (DH5alpha, BL21 or JM109)
Described as above. As to conditions: PDZ INADL, PDZ Domain 3. A digest of the protocol:
as §1

Ends that are not written are not given here. Peptide text beside a SMILES is read from it. * marks the point of attachment. Biotin = O=C1N[C@H]2[C@H](CS[C@H]2CCCCC(=O)*)N1

Regarding `CC[C@H](C)[C@H](NC(=O)[C@H](CO)NC(=O)[C@@H](NC(=O)CNC(=O)[C@H](CCCNC(=N)N)NC(=O)[C@H](CC(=O)O)NC(=O)[C@@H]1CCCN1C(=O)[C@H](CC(=O)O)NC(=O)[C@H](CC(N)=O)NC(=O)CNC(=O)[C@H](CC(C)C)NC(=O)[C@H](CC(N)=O)NC(=O)[C@H](CC(C)C)NC(=O)CNC(=O)[C@H](CC(C)C)NC(=O)[C@@H](NC(=O)[C@@H]1CCCN1C(=O)[C@@H](NC(=O)[C@@H]1CCCN1C(=O)[C@H](CCC(N)=O)NC(=O)CCCC[C@@H]1SC[C@@H]2NC(=O)N[C@@H]21)[C@@H](C)O)[C@@H](C)O)[C@@H](C)O)C(=O)O` [GluR delta-2] (Biotin-QPTPTLGLNLGNDPDRGTSI-OH; C-terminus assumed), in [1], the Kd amounted to 4 µM. Further, the Classification in [2] was 2 (A450 nm 1-2); in [3] (PDZ KIAA0807(S), PDZ Domain 1), 4 (A450 nm 3-4); in assay [3] (PDZ KIAA807, PDZ Domain not given) it was 3 (A450 nm 2-3); in [4] it was 2 (A450 nm 1-2).
Take “SSPDSSYQGKGFVMSRAMYV (Biotin-SSPDSSYQGKGFVMSRAMYV) [Nectin 2]”: the Classification in assay [5] is reported as 2 (A450 nm 1-2); in assay [6] it was 2 (A450 nm 1-2); in [7] it was 1 (A450 nm 0-1).
As for “YSQPSARSEGEFKQTSSFLV (Biotin-YSQPSARSEGEFKQTSSFLV) [JAM (junctional adhesion molecule)]”, the Classification in assay [8], in [9] and in assay [6] was 1 (A450 nm 0-1) in each case.
